Holding throughout (assay): cell-based or functional assay
Experiment [1] addresses T1, HIV-1 gp41 of strain HXB2 (HIV-1 strain HXB2, UniProt P04578 512-856).
Experiment [2] concerns the target HIV-1 gp41 of strain JRFL (HIV-1 strain JRFL).
Experiment [3] has as its target T1, HIV-1 gp41 of strain HXB2. This is another data set of the same source.
In experiment [4] the target is HIV-1 gp41 of strain JRFL (HIV-1 strain JRFL). This is another data set of the same source.

Bridge positions count the residues as written; N and C are the ends. Square brackets hold non-standard residues; d marks the D form. Primed or numbered codes have the meaning given here. Side chains are listed from the residue outwards. PEG4″ = PEG chain having 4 ethylene glycol repeat units; 4‑arm scaffold = not defined here

B1: Palmitate-conjugated PIE12-trimer (peptide)
peptide: Ac-[dH][dP][dC][dD][dY][dP][dE][dW][dQ][dW][dL][dC][dE][dL]G[dK]([PEG4″-4‑arm scaffold])-NH2
modifications: disulfide 3-12 (inferred); reading uncertain; also: trimer: three PIE12 monomers on 4-arm scaffold, fourth arm PEG24 with D-cysteine bridge carrying palmitate
With B1, in experiment [1], the “fold increase in potency against unconjugated PIE12-trimer (HXB2)” value fell in the range of 3 to 4 fold. Moreover, the “fold increase in potency against unconjugated PIE12-trimer (JRFL)” value in experiment [2] is 3 to 4 fold. In addition, the “Antiviral potency, IC50, HXB2 pseudovirion entry assay” value in experiment [3] came out at 0.225 nM. For the same molecule, the “Antiviral potency, IC50, JRFL pseudovirion entry assay” value in experiment [4] amounted to 0.54 nM.

B2: CPT24-5 kD (peptide)
peptide: Ac-[dH][dP][dC][dD][dY][dP][dE][dW][dQ][dW][dL][dC][dE][dL]G[dK]([PEG4″-4‑arm scaffold])-NH2
modifications: disulfide 3-12 (inferred); reading uncertain; also: PIE12 trimer on 4-arm scaffold, fourth arm 5 kDa linear polydisperse PEG with thiocholesterol
In the case of B2, the “Antiviral potency, IC50, JRFL pseudovirion entry assay” value in experiment [4] is 0.026 nM.

B3: 40 kD PEG-PEG24-PIE12 trimer (peptide)
peptide: Ac-[dH][dP][dC][dD][dY][dP][dE][dW][dQ][dW][dL][dC][dE][dL]GK-NH2
modifications: disulfide 3-12 (inferred); not fully specified (residue 16); also: trimer: three PIE12 monomers on 4-arm scaffold, fourth arm PEG24 carrying 40 kDa Y-branched PEG
Take B3: the “fold reduction of potency against unconjugated PIE12-trimer (HXB2)” value in experiment [1] came out at 13 fold. Moreover, the “fold reduction of potency against unconjugated PIE12-trimer (JRFL)” value in experiment [2] stood at 34 fold. Also, the “Antiviral potency, IC50, HXB2 pseudovirion entry assay” value in experiment [3] came to 9.5 nM. In addition, in experiment [4], the “Antiviral potency, IC50, JRFL pseudovirion entry assay” value turned out to be 71 nM.

For the origin of these results see US20190023748A1 (NAVIGEN, published 2019).
